Data published in US20240409645A1 (DUALYX, published 2024).
Numbering of substitutions follows the chain as printed. Blank lines part the entries; values can stand above or below the binder they belong to.

Experiments:
[1] = molecular target: T1, human IL-2Rβ (human, UniProt P14784 27-240, limits assumed); experiment: P.E. binding ELISA on coated protein
T1 construct: Recombinant protein, coated (ELISA) or immobilised on CM5 (SPR); also called hu IL-2R; interleukin 2 receptor β-chain
T1 sequence: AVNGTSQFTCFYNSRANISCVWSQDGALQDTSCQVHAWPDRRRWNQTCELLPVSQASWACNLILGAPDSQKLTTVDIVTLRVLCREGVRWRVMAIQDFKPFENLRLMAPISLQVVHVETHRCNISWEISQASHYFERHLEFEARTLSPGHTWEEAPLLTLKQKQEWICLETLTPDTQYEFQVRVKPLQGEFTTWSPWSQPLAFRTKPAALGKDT
Procedure: In a binding ELISA, human or mouse IL-2Rα, IL-2Rβ and IL-2Rγ proteins were coated directly on maxisorp microtiter plates overnight at 4° C. Free binding sites were blocked using 4% Marvel in PBS for 1 hour. Next, 1:5 dilution of P.E. in 1% Marvel/PBS were added to wells and incubated for 1 hour. […] Binding specificity was determined based on O.D. at 450 nm values compared to negative controls.

[2] = molecular target: T1, human IL-2Rβ; experiment: SPR (Biacore), P.E. off-rate ranking

B1: FJ1427_P035MP03H01 (VHH)
VHH: QVQLVESGGGSVQTGGSLRLSCVVSGSHFISDVMGWYRQVPGKQRELVADMADGGSAKYADSVKGRFTILRDSVKNTVTLQMSSLNPEDTGVYYCKAGLWITGRHSDYWGQGTQVTVTS
notes: soluble VHH in periplasmic extract; also called clone nr; 200
P.E. binding ELISA OD [1]: 0.327 OD450 nm | koff [2]: 0.000365 s⁻¹

B2: FJ1427 P035MP03A03 (VHH)
VHH: B1 VHH with Q1E, A57V, A60G, S106F
notes: soluble VHH in periplasmic extract; also called clone nr
P.E. binding ELISA OD [1]: 0.296 OD450 nm | koff [2]: 0.000248 s⁻¹

B7: FJ1427 P035MP03D02 (VHH)
VHH: QVQLQESGGGLVQTGGSLRLSCAVSGSRFISDVMGWYRQVPGKQRELVADMADGGSAKYADSVKGRFSILRDSVKNTVYLQMSSLKPEDTGIYYCKAGLWLAGRHSDYWGQGTQVTVSS
notes: as for B2
P.E. binding ELISA OD [1]: 0.116 OD450 nm | koff [2]: 0.000796 s⁻¹

B8: FJ1427 P035MP03D01 (VHH)
VHH: QVQLVESGGGLVQPGGSLGLSCAASGFTFDNYAMSWVRQAPGKGLEWVSSITGAGRGTHYADSVKGRFTISRDNAKNTLYLQMNSLKPEDTAVYYCAKYSSSTYYPPTPARGTDYRGPGTQVTVSS
notes: as for B2
P.E. binding ELISA OD [1]: 0.307 OD450 nm | koff [2]: 0.00127 s⁻¹

B9: FJ1427_P035MP03G03 (VHH)
VHH: B8 VHH
notes: as for B2
P.E. binding ELISA OD [1]: 0.137 OD450 nm | koff [2]: 0.00114 s⁻¹

B10: FJ1427_P035MP03F02 (VHH)
VHH: B8 VHH with G19R, D30S, H59Y, A75D, S100D, T113I, D114A, Y115D, P118Q, T120I
notes: as for B2
P.E. binding ELISA OD [1]: 0.113 OD450 nm | koff [2]: 0.00191 s⁻¹

B11: FJ1427 P035MP03D04 (VHH)
VHH: QVQLVESGGGLVQPGGSLRLSCAASGFTFSNYAMSWVRQAPGKELEWVSSITSAGRGTHYADTVKGRFTISRDNDENTLYLQMNSLEPEDTAVYYCAKYSSATYYPPTPAQGRDYRGQGTQVTVSS
notes: soluble VHH in periplasmic extract; also called clone nr; 220
P.E. binding ELISA OD [1]: 0.447 OD450 nm | koff [2]: 0.0016 s⁻¹

B13: FJ1427_P035MP03E06 (VHH)
VHH: B8 VHH with P14A, G16R
notes: as for B2
P.E. binding ELISA OD [1]: 0.299 OD450 nm | koff [2]: 0.00116 s⁻¹

B14: FJ1427_P035MP03E03 (VHH)
VHH: QVQLVESGGGLVQPGGSLRLSCAVSGGTLHDYGIGWIRQAPGKQREGVSCMSRSDDKTYYADYVKGRFTISKDNAKNTVYLQMISLKPEDTAVYYCAAVDAYGCSLVQPTTYDYWGQGTQVTVSS
notes: as for B2
P.E. binding ELISA OD [1]: 0.281 OD450 nm | koff [2]: 0.00136 s⁻¹

B15: FJ1427 P035MP03B04 (VHH)
VHH: QVQLVESGGGLVQTGGSLRLSCAASGSQFINDVMGWYRQVPGKQRELVADMDDTGSTKYADSVKGRFTILRDSVKNTAYLQMSNLKPEDTGVYYCKAGLWIKGRHSDYWGQGTQVTVSS
notes: as for B2
P.E. binding ELISA OD [1]: 0.186 OD450 nm | koff [2]: 0.00043 s⁻¹

B18: FJ1427_P035MP06B01 (VHH)
VHH: QVQLVESGGGLVQAGGSLRLSCAASGDVFVRYTMAWFRQAPGKEREFVASVTDSGRTTDYVHSVKGRFTVSRDNAKNTVYLQMNNLKPEDTAVYYCAANTDYFQIRSLDANTWGQGTQVTVSS
notes: as for B2
P.E. binding ELISA OD [1]: 0.521 OD450 nm | koff [2]: 0.0021 s⁻¹

B20: FJ1427 P035MP03B08 (VHH)
VHH: B18 VHH with S21A, A24L, H62A, K65Q, A75N, N85S, A110R
notes: soluble VHH in periplasmic extract; also called clone nr; 250
P.E. binding ELISA OD [1]: 1.12 OD450 nm | koff [2]: 0.00064 s⁻¹

B21: FJ1427 P035MP03B11 (VHH)
VHH: B18 VHH with Q1E, S21A, A24L, H62A, K65Q, A75N, N85S, A110R
notes: as for B2
P.E. binding ELISA OD [1]: 0.987 OD450 nm | koff [2]: 0.000622 s⁻¹

B22: FJ1427_P035MP03H04 (VHH)
VHH: QVQLVESGGGLVQAGGSLALSCAASGGTFSSYAMGWFRQAPGKEREFVAATTRGGGRTMYAVSTEGRFSCSRDNAKNTVYLLIKNLKPEDTAVYYCAARTSYYDGTYYPASSDFDIWGQGTQVTVSS
notes: as for B2
P.E. binding ELISA OD [1]: 0.262 OD450 nm | koff [2]: 0.000431 s⁻¹

B23: FJ1427_P035MP03G01 (VHH)
VHH: B22 VHH with Q1E, A19R, S69T, I83M, K84N, N85R, L86V, D104S
notes: as for B2
P.E. binding ELISA OD [1]: 0.192 OD450 nm | koff [2]: 0.00058 s⁻¹

B24: FJ1427_P035MP03A02 (VHH)
VHH: QVQLVESGGGLVQAGGSLRLSCAASGGTFSSYAMGWFRQAPGKEREFVAATTRGGGRTMYAVSTEGRFTCSRDNAENTVYLQMNSLKPEDTAIYYCAAMTSYYSGTYYPDSSDFDIWGQGTQVTVSS
notes: as for B2
P.E. binding ELISA OD [1]: 0.28 OD450 nm | koff [2]: 0.00104 s⁻¹

B26: FJ1427 P035MP03C04 (VHH)
VHH: B22 VHH with Q1E, G16A, A19E, Y80N
notes: as for B2
P.E. binding ELISA OD [1]: 0.395 OD450 nm | koff [2]: 0.000307 s⁻¹

B28: FJ1427 P035MP03C02 (VHH)
VHH: QVQLVESGGGLVQVGDSLRLSCAASGRTVGSANMGWFRQAPGKEREFVAVITWSTGSTVYADSVKGRFTISRDNAKNTVYLDMSSLKPEDTAVYYCAADVYPYSGNLNIMDYWGKGTLVTVSS
notes: as for B2
P.E. binding ELISA OD [1]: 0.828 OD450 nm | koff [2]: 0.00159 s⁻¹

B31: FJ1427_P035MP03B02 (VHH)
VHH: B28 VHH with Q1E, E89D
notes: as for B2
P.E. binding ELISA OD [1]: 0.529 OD450 nm | koff [2]: 0.00241 s⁻¹

B32: FJ1427_P035MP03G02 (VHH)
VHH: EVQLVESGGGLVQPGGSLRLSCAISGGTLDSYGIGWVRQAPGKQREGVSCMSRSDDRTFYADSVKGRFTISKDNAKSTVYLQMTNLKPDDTAVYYCAAVDAYGCSLVQPTTYDFWGLGTQVTVSS
notes: as for B2
P.E. binding ELISA OD [1]: 0.684 OD450 nm | koff [2]: 0.000754 s⁻¹

The next lines start with the values.

P.E. binding ELISA OD [1]: 0.31 OD450 nm | koff [2]: 0.000499 s⁻¹
B3: FJ1427_P035MP03B03 (VHH)
VHH: B7 VHH with V2L, Q5V, L101I
notes: soluble VHH in periplasmic extract; also called clone nr; 210

P.E. binding ELISA OD [1]: 0.107 OD450 nm | koff [2]: 0.000361 s⁻¹
B4: FJ1427_P035MP03F03 (VHH)
VHH: B1 VHH with G10T, S11L, A60G, L70V, T79Y, T102K
notes: as for B2

P.E. binding ELISA OD [1]: 0.305 OD450 nm | koff [2]: 0.000373 s⁻¹
B5: FJ1427_P035MP03A04 (VHH)
VHH: B1 VHH with Q1E, A57V, A60G, S106F
notes: as for B2

P.E. binding ELISA OD [1]: 0.22 OD450 nm | koff [2]: 0.000253 s⁻¹
B6: FJ1427_P035MP03E04 (VHH)
VHH: B7 VHH with Q5V, R28H, G42E, G55N, L101I
notes: as for B2

P.E. binding ELISA OD [1]: 0.203 OD450 nm | koff [2]: 0.0011 s⁻¹
B12: FJ1427 P035MP03B01 (VHH)
VHH: B8 VHH with P14A, G19R, D30S, A54F, H59D, K98R, P118Q
notes: as for B2

P.E. binding ELISA OD [1]: 0.434 OD450 nm | koff [2]: 0.000286 s⁻¹
B16: FJ1427_P035MP03F06 (VHH)
VHH: B15 VHH with V5Q
notes: as for B2

P.E. binding ELISA OD [1]: 0.153 OD450 nm | koff [2]: 0.000402 s⁻¹
B17: FJ1427_P035MP03F04 (VHH)
VHH: B15 VHH with Q1E
notes: as for B2

P.E. binding ELISA OD [1]: 0.286 OD450 nm | koff [2]: 0.000707 s⁻¹
B19: FJ1427 P035MP03B10 (VHH)
VHH: B18 VHH with A23V, A24V, S50V, D59E, H62D, L108V, A110N, T112A
notes: as for B2

P.E. binding ELISA OD [1]: 0.329 OD450 nm | koff [2]: 0.000323 s⁻¹
B25: FJ1427 P035MP03E01 (VHH)
VHH: B24 VHH with E76K, Q82L, I93V
notes: as for B2

P.E. binding ELISA OD [1]: 0.316 OD450 nm | koff [2]: 0.000772 s⁻¹
B27: FJ1427 P035MP03H05 (VHH)
VHH: B22 VHH with V2L
notes: as for B2

P.E. binding ELISA OD [1]: 0.265 OD450 nm | koff [2]: 0.000538 s⁻¹
B29: FJ1427_P035MP03D03 (VHH)
VHH: B28 VHH with M83L, L118Q
notes: as for B2

P.E. binding ELISA OD [1]: 0.221 OD450 nm | koff [2]: 0.00447 s⁻¹
B30: FJ1427_P035MP03F01 (VHH)
VHH: QVQLVESGGGLVQVGGSLRVSCAASGRTSGDRNMGWFRQAPGKEREFVGIITWSSGSTVYADSVKGRFTISRDNAKNTVYLDMSSLKPEDTAVYYCAADYYPYSGSWNIMDYWGKGTLVTVSS
notes: as for B2

P.E. binding ELISA OD [1]: 0.488 OD450 nm | koff [2]: 0.00124 s⁻¹
B33: FJ1427_P035MP03E02 (VHH)
VHH: QVQLVESGGGLVQVGGSLSVSCAASGRSFDSITMAYFRQAPGNEREFIAGINFSGSRTAYGDSVKGRFTISRDNAKNTVFLQMNSLNPEDTAVYYCAASPRGFYGPGHALYDYWGQGTQVTVSS
notes: as for B2
